Here are results for eight molecules from PMC6296734, “The CbrB Regulon: Promoter dissection reveals novel insights into the CbrAB expression network in Pseudomonas putida”.

Series [1] concerns the target T1, CbrB (Pseudomonas putida, UniProt A0ABM7EKZ2 1-480).
T1 sequence: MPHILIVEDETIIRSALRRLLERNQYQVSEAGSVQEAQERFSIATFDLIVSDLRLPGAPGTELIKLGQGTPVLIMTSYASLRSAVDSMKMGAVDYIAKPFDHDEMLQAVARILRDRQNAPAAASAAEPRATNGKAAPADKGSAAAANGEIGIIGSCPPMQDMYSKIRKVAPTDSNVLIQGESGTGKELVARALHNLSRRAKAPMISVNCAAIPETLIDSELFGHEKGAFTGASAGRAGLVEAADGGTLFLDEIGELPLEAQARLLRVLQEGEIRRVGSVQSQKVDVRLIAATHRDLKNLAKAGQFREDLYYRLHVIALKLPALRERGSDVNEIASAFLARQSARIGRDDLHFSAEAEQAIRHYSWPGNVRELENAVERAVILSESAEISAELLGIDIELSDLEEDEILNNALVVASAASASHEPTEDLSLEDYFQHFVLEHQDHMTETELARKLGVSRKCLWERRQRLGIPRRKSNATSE
Put plainly: EMSA; EMSA at room temperature; crcZ/crcY (5 nM): 35 mM Tris-acetate pH 7.9, 70 mM KAc, 20 mM NH4Ac, 2 mM MgAc2, 1 mM CaCl2, 1 mM DTT, 5% glycerol; others (1.5 nM) and footprint: 50 mM Tris-HCl pH 7.4, 50 mM KCl, 10 mM MgCl2, 0.1 mM EDTA, 1 mM DTT; plus 100 ng/ul salmon sperm DNA, 250 ng/ul BSA. To be noted: protein: recombinant, tags: N-terminal His tag (pET-14b derived pMPO1229), label: 32P-dATP Klenow fill-in.

The target in series [2] is T1, CbrB. Put plainly: EMSA; not significantly affected; EMSA at room temperature; crcZ/crcY (5 nM): 35 mM Tris-acetate pH 7.9, 70 mM KAc, 20 mM NH4Ac, 2 mM MgAc2, 1 mM CaCl2, 1 mM DTT, 5% glycerol; others (1.5 nM) and footprint: 50 mM Tris-HCl pH 7.4, 50 mM KCl, 10 mM MgCl2, 0.1 mM EDTA, 1 mM DTT; plus 100 ng/ul salmon sperm DNA, 250 ng/ul BSA. To be noted: protein: recombinant; tags: N-terminal His tag (pET-14b derived pMPO1229); label: 32P-dATP Klenow fill-in; 5' overhang 2 nt at both ends before fill-in. A general note: A gel shift assay detects complexes by their altered migration in electrophoresis.

[3] abbreviates: 5' overhang 2 nt at both ends before fill-in.

Changes are numbered by the printed parent chain.

B1: PcrcY wt 72 bp (dsDNA)
DNA 1: TTGTGTGGGTGAAGTGTTACCTCCCGCACATTTCACAGCAAAAAATCGGGTAACAGGGAAACAAATCGGCAGAA
DNA 2: TTTTCTGCCGATTTGTTTCCCTGTTACCCGATTTTTTGCTGTGAAATGTGCGGGAGGTAACACTTCACCCACAC
Regarding B1, in the series with CbrB [1] (setting [3]), the binding result is given as “binds”.

B2: PcrcY F1 mutant (dsDNA)
DNA 1: B1 DNA 1 with T15G, G16A, T17C, A19C, C20T
DNA 2: B1 DNA 2 with G57A, T58G, A60G, C61T, A62C
In the case of B2, the binding result with CbrB [1] (setting [3]) is listed as “no binding”.

B3: PcrcY R' mutant (dsDNA)
DNA 1: B1 DNA 1 with G50T, T51A, A52C, A53C, C54G, A55T
DNA 2: B1 DNA 2 with T22A, G23C, T24G, T25G, A26T, C27A
As for B3, the binding result with CbrB [2] is given as “binds”.

B4: PcrcY R2 mutant (dsDNA)
DNA 1: B1 DNA 1 with G58T, A59C, A60T, A61C, C62A, A63T
DNA 2: B1 DNA 2 with T14A, G15T, T16G, T17A, T18G, C19A
As for B4, the binding result with CbrB [2] is on record as “binds”.

B5: PcrcZ wt 72 bp (dsDNA)
DNA 1: TTCCCGTAAAAATCTGTTACCCAAGCTTTCCGCCGTAACAGTCCCCGAGGCGTACGGTAACGAAATTGCGACAT
DNA 2: TTATGTCGCAATTTCGTTACCGTACGCCTCGGGGACTGTTACGGCGGAAAGCTTGGGTAACAGATTTTTACGGG
Regarding B5, in the series with CbrB [1] (setting [3]), the binding result is reported as “binds”.

B6: PcrcZ F1 mutant (dsDNA)
DNA 1: B5 DNA 1 with T15G, G16A, T17C, A19C, C20T
DNA 2: B5 DNA 2 with G57A, T58G, A60G, C61T, A62C
As to B6, in the series with CbrB [1] (setting [3]), the binding result is “no binding”.

B7: PcrcZ R1 mutant (dsDNA)
DNA 1: B5 DNA 1 with G35T, T36G, A37C, A38T, C39A, A40C
DNA 2: TTATGTCGCAATTTCGTTACCGTACGCCTCGGGGACGTAGCAGGCGGAAAGCTTGGGTAACAGATTTTTACGG
Regarding B7, the binding result with CbrB [1] (5' overhang 2 nt (one end 3 nt, reverse strand printed one G shorter) before fill-in) was “no binding”.

B8: PcrcZ R2 mutant (dsDNA)
DNA 1: B5 DNA 1 with G57T, T58A, A59C, A60C, C61G, G62T
DNA 2: B5 DNA 2 with C15A, G16C, T17G, T18G, A19T, C20A
Regarding B8, the binding result with CbrB [1] (setting [3]) is “no binding”.
